Publication PMC8361696, “Regulation of aquaporin‐4 expression in the central nervous system investigated using M23‐AQP4 null mouse” (Glia, 2021)

Target: the molecule itself
Experiment: native gel or EMSA; blue native PAGE (3-9% gradient) of 50 ug spinal cord lysate in BN buffer (1% Triton X-100, 12 mM NaCl, 500 mM 6-aminohexanoic acid, 20 mM Bis-Tris pH 7.0), immunoblot with anti-AQP4

B1: M1-AQP4 (M23I) of M23-null mouse spinal cord (natural protein, mouse (endogenous in spinal cord), UniProt P55088 1-323, looked up)
chain: MSDGAAARRWGKCGHSCSRESIIVAFKGVWTQAFWKAVSAEFLATLIFVLLGVGSTINWGGSENPLPVDMVLISLCFGLSIATMVQCFGHISGGHINPAVTVAMVCTRKISIAKSVFYIIAQCLGAIIGAGILYLVTPPSVVGGLGVTTVHGNLTAGHGLLVELIITFQLVFTIFASCDSKRTDVTGSIALAIGFSVAIGHLFAINYTGASMNPARSFGPAVIMGNWANHWIYWVGPIMGAVLAGALYEYVFCPDVELKRRLKEAFSKAAQQTKGSYMEVEDNRSQVETEDLILKPGVVHVIDIDRGEEKKGKDSSGEVLSSV
notes: mouse aquaporin-4, M1-AQP4 isoform with the methionine codon at position 23 replaced by isoleucine, so no M23-AQP4 is made; The mouse model is described in de Bellis et al., 2020; also called M1M23I; AQP4 of M23-null mice; source: endogenous, M23-null (CRISPR/Cas9 M23I knock-in) mouse spinal cord, lysate in BN buffer (1% Triton X-100)
  stoichiometry N: 4
